# Laboratory results as given in patent US20100184651A1, “TARGETED FUSION PROTEINS FOR CANCER THERAPY” (Dabur Pharma Limited, priority 2005, published 2010).
# Columns and labels:
# [1] = target: T1, VPAC 1 receptors expressed on A549 cells (Homo sapiens, UniProt P32241); test: Immunocytochemical staining for cell surface receptors on A549 cells; assay type: binding; conditions: A549 cells pre-treated, then anti-VPAC-1 immunostaining
# T1 construct: the receptors were overexpressed in the A549 cell line; endogenous in cells; host or cells: A549 human lung carcinoma cells (acetone-fixed on slides)
# T1 sequence (P32241 31-457): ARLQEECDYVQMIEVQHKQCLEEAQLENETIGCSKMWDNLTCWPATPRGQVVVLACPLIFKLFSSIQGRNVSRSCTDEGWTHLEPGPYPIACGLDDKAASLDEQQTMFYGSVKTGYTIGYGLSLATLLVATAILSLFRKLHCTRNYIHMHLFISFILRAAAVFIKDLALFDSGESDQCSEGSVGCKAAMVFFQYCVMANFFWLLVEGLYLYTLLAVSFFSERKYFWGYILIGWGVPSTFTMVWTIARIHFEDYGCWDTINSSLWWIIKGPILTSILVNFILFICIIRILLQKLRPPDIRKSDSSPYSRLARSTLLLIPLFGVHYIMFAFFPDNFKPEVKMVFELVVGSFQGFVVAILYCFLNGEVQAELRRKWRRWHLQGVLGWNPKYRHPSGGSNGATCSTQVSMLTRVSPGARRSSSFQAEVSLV
# Experimental: Similarly, when, the cells were treated with fusion protein and immuno-stained with anti-BID. […] A similar observation was made when A549 cells were pre-treated with VIP antagonist, VIP (10-28) followed by fusion protein and immunostaining with anti-BID (FIG. 15e).
# Cultured (A549 human lung carcinoma) cells were detached with trypsin/EDTA and pelleted by low-speed centrifugation. The cells were resuspended in PBS. Cell suspensions were coated onto poly-L-lysine coated glass slides, dried and then fixed for 10 min in acetone at −20° C. After drying for 2 h, slides were rinsed in PBS and then treated for 5 min with water/H2O2 in order to block endogenous peroxidase. Slides were again rinsed again in PBS and treated with normal rabbit and goat serum to block background staining. Slides were then incubated with antagonist, VIP(10-28) and/or fusion protein for 1 hr each. Slides were again washed with PBS and incubated with rabbit-anti-BID antibody (dilution 1:1000) or goat anti-VPAC 1 antibody (dilution 1:1000) for 1 h. Slides were again washed in PBS and incubated with […] IgG peroxidase labelled antibodies for anti-BID and anti-VPAC 1 primary antibodies respectively, for 1 h followed by addition of the 3,3′-diaminobenzidine-tetrachloride (DAB) substrate and hydrogen peroxide in PBS. […]
# VPAC-1 receptors = target: T2, VPAC-1 receptors (Homo sapiens, UniProt P32241); test: Receptor targeting: competition with VIP (10-28) antagonist, MTT assay in HT29 cells; assay type: cell-based; conditions: 24 h
# T2 construct: endogenous in cells; host or cells: HT29 colon carcinoma cells
# T2 sequence (P32241 31-457): T1 sequence (P32241 31-457)
# Experimental: To further confirm the receptor mediated targeting of the protein, HT29 cells were pre-incubated with varying concentrations of VIP antagonist, VIP (10-28) peptide [Gozes I., et al., Cell Mol. Neurobiol., 1995, 15, 675] for 30 minutes followed by treatment with 10 μM of fusion protein. […] Similar, observation was made when the cells were treated with 5 μM of fusion protein, although this time the receptors were saturated by 25 μM concentration of the antagonist (FIG. 14b).
# Cells were seeded in 96-well microplates, followed by the addition of various concentrations of the VIP antagonist VIP (10-28) Fragment for 30 minutes, followed by the addition of fusion protein at a fixed concentration. VIP (10-28) Fragment was allowed to remain in culture wells for whole of the experiment. After a 24-hour incubation, the MTT assay was performed as above.
substance,measurement,setting,value
"VIP (10-28) peptide: VIP antagonist, VIP (10-28) peptide (YTRLRKQMAVKKYLNSILN)",availability of VPAC-1 receptors to anti VPAC-1 after pre-treatment,[1],significant loss in the immunostained cell population
same,concentration of antagonist giving complete loss of cytotoxicity of fusion protein,"VPAC-1 receptors; HT29 pre-incubated 30 minutes with antagonist, then 10 μM of fusion protein",100 µM
same,concentration of antagonist at which the receptors were saturated (loss of cytotoxicity),"VPAC-1 receptors; HT29 pre-incubated with antagonist, then 5 μM of fusion protein",25 µM
